Source: patent US20250136687A1 (SHANDONG SIMCERE BIOPHARMACEUTICAL, published 2025)
Where two headings read alike, the source gives them in different places.

Experiments:
[1] = target: T1, human CD3 on the cell surface (Jurkat cells, expanded human T cells, Jurkat-Lucia NFAT cells, human PBMC) (human, UniProt P07766 23-207; P04234 22-171; P09693 23-182); test: FACS, Jurkat cells
T1 construct: whole, on cells; Endogenous CD3 within the TCR-CD3 complex on cells (also zeta chains and TCR); the cell type is named under assay
Procedure: (§1) The binding of the chimeric antibodies to CD3 on the cell surface was analyzed by detecting the binding of the antibodies to Jurkat cells and human T cells. Suspension cells Jurkat cells were scale-up cultured in T-75 cell culture flasks to the logarithmic growth phase, the supernatant of the medium was discarded by centrifugation, and the cell pellet was washed 2 times with PBS for later use. The expanded human T cells were washed 2 times with PBS for later use. After counting the cells in the previous step, the cell pellet was resuspended with [PBS+2% (w/w) BSA] blocking solution to 4×10⁶ cells/ml, and added to a 96-well FACS reaction plate at 50 μl/well, and then the chimeric antibody to be tested was added at 50 μl/well, and incubated at 4° C. for 1 h. The cells were centrifuged and washed 3 times with a PBS buffer. […] The cells were centrifuged and washed 5 times with PBS, and FACS (FACS Canto™, purchased from BD Company) was used for detection and result analysis. Data analysis was performed by software (CellQuest) to obtain the mean fluorescence […] (MFI) of the cells. And then software (GraphPad Prism8) was used for analysis, data fitting, and EC50 value calculation. The same method was used to simultaneously detect the binding of the chimeric antibodies to endogenous CD3 negative cells MOLT4 cells.

[2] = target: T1, human CD3 on the cell surface (Jurkat …); test: FACS, expanded human T cells
Procedure: as §1

[3] = target: T1, human CD3 on the cell surface (Jurkat …); test: FACS, Jurkat cells; remark: listed apart in the source
Procedure: Suspension cells Jurkat cells (purchased from Cell bank of Chinese Academy of Sciences) were scale-up cultured in T-175 cell culture flasks to the logarithmic growth phase, the supernatant of the medium was discarded by centrifugation, and the cell pellet was washed 2 times with PBS. After counting the cells in the previous step, the cell pellet was resuspended with [PBS+2% (w/v) FBS] blocking solution to 4×10⁶ cells/ml, and added to a 96-well FACS reaction plate at 50 μl/well, the supernatant was removed by centrifugation, detection antibodies (initial concentration of […], gradient dilution at 1:5) and an IgG negative control were added at 100 μl/well, the cells were uniformly mixed, and incubated on ice for 1 h. The cells were centrifuged and washed 3 times with a PBS buffer. […] The cells were centrifuged and washed 5 times with a PBS buffer, and FACS (FACS Canto II, purchased from BD Company) was used for detection and result analysis. Data analysis was performed by software (CellQuest) to obtain the mean fluorescence intensity (MFI) of the cells. And then software (GraphPad Prism8) was used for analysis, data fitting, and EC50 value calculation.

[4] = target: T2, cynomolgus monkey CD3 on the surface of expanded monkey T cells (cynomolgus monkey, UniProt Q95LI5 22-198; Q95LI8 22-171; Q95LI7 23-181); test: FACS, expanded monkey T cells
T2 construct: whole, on cells; Endogenous CD3 within the TCR-CD3 complex on T cells expanded from cynomolgus monkey PBMC
Procedure: as §1
FACS detection and data analysis were performed on the cryopreserved monkey T cells of Example 2.4 according to the method in Example 5.1.

[5] = target: T2, cynomolgus monkey CD3 on the surface of …; test: FACS, expanded monkey T cells; remark: listed apart in the source
[6] = target: T1, human CD3 on the cell surface (Jurkat …); test: FACS, expanded human T cells; remark: listed apart in the source

T1 sequence (P07766 23-207, chain 1 of 3): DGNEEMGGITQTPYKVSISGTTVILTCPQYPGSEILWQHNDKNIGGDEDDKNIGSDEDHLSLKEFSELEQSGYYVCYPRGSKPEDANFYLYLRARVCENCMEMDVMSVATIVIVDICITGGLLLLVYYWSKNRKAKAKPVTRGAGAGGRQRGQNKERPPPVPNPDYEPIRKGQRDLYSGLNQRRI
T1 sequence (P04234 22-171, chain 2 of 3): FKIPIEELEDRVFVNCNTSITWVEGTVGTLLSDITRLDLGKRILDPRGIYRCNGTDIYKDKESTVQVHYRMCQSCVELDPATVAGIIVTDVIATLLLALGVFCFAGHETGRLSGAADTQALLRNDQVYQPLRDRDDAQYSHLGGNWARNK
T1 sequence (P09693 23-182, chain 3 of 3): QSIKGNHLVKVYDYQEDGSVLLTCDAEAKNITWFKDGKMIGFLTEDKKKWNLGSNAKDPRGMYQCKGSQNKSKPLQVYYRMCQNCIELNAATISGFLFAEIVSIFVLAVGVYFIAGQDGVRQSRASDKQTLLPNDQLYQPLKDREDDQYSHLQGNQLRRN
T2 sequence (Q95LI5 22-198, chain 1 of 3): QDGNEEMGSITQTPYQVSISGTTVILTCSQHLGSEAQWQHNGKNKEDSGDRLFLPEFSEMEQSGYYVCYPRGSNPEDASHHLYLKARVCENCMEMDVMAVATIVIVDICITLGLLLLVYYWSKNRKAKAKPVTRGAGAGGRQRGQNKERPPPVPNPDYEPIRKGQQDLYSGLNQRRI
T2 sequence (Q95LI8 22-171, chain 2 of 3): as the sequence (P04234 22-171, chain 2 of 3) above, with I5V, N15K, I20V, S32T, D33N, I34N, T64A, S74N, V83L, H141R counted along it
T2 sequence (Q95LI7 23-181, chain 3 of 3): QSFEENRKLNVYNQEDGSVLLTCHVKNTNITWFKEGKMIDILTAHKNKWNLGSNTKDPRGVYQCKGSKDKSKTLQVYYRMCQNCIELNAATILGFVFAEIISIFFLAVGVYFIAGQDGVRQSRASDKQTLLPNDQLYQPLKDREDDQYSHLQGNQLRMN

B1: SP34-hIgG1 (antibody)
heavy: not shown
light: QAVVTQESALTTSPGETVTLTCRSSTGAVTTSNYANWVQEKPDHLFTGLIGGTNKRAPGVPARFSGSLIGDKAALTITGAQTEDEAIYFCALWYSNLWVFGGGTKLTVLRTVAAPSVFIFPPSDEQLKSGTASVVCLLNNFYPREAKVQWKVDNALQSGNSQESVTEQDSKDSTYSLSSTLTLSKADYEKHKVYACEVTHQGLSSPVTKSFNRGEC
notes: Positive control
- EC50 [1]: 0.13 nM
- MFI_Max [1]: 7020 MFI
- EC50 [2]: 0.43 nM
- MFI_Max [2]: 43100 MFI
- EC50 [3]: 0.45 nM
- EC50 [4]: 0.27 nM
- MFI_Max [4]: 64700 MFI
- EC50 [5]: 0.49 nM
- EC50 [6]: 2.54 nM
